Article PMC8979966
Where two headings read alike, the source gives them in different places.

What was measured:
[1] = target: TCR 868 (single-chain Vbeta-linker-Valpha); experiment: YAMTAD: yeast mating between pMHC-displaying and TCR-displaying yeast, diploid selection, deep sequencing; 3 biological x 4 technical repeats; conditions: S. cerevisiae mating; TCR 868 group vs control TCR A6 group; higher = more enriched with TCR 868 than with the control TCR A6; not monotonic in affinity (misses both ways); not an affinity; keep out of graded; partner unresolved; scale: ratio: mean frequency with TCR 868 / mean frequency with control TCR A6, each normalised to the 3* stop peptide; numbering: sequential-on-construct, sequence starts at 1
[2] = target: TCR 868 (single-chain Vbeta-linker-Valpha); conditions: higher = more enriched with TCR 868 than with the control TCR A6; not monotonic in affinity (misses both ways); scale: ratio: mean frequency with TCR 868 / mean frequency with control TCR A6, each normalised to the 3* stop peptide; numbering: sequential-on-construct, sequence starts at 1

| Substance | screen value [1] | screen value [2] |
| --- | --- | --- |
| SL9 peptide (HIV-1 Gag, […]) presented by HLA-A*02:01 3Q (SLQNTVATL; codon CAG) | 1.16 | – |
| SL9 peptide (HIV-1 Gag, […]) presented by HLA-A*02:01 3C (SLCNTVATL; codon TGT) | 1.1 | – |
| SL9 peptide (HIV-1 Gag, […]) presented by HLA-A*02:01 3R (SLRNTVATL; codon AGG) | 1.06 | – |
| SL9 peptide (HIV-1 Gag, […]) presented by HLA-A*02:01 3L (SLLNTVATL; codon TTG) | 1.84 | – |
| SL9 peptide (HIV-1 Gag, […]) presented by HLA-A*02:01 3W (SLWNTVATL; codon TGG) | 1.2 | – |
| SL9 peptide (HIV-1 Gag, […]) presented by HLA-A*02:01 3M (SLMNTVATL; codon ATG) | 1.16 | – |
| SL9 peptide (HIV-1 Gag, […]) presented by HLA-A*02:01 3I (SLINTVATL; codon ATT) | 1.28 | – |
| SL9 peptide (HIV-1 Gag, […]) presented by HLA-A*02:01 3P (SLPNTVATL; codon CCG) | 1.03 | – |
| SL9 peptide (HIV-1 Gag, […]) presented by HLA-A*02:01 3V (SLVNTVATL; codon GTG) | 1.11 | – |
| SL9 peptide (HIV-1 Gag, […]) presented by HLA-A*02:01 3S (SLSNTVATL; codon AGT) | 1.08 | – |
| SL9 peptide (HIV-1 Gag, […]) presented by HLA-A*02:01 3T (SLTNTVATL; codon ACT) | – | 1.11 |
| SL9 peptide (HIV-1 Gag, […]) presented by HLA-A*02:01 3G (SLGNTVATL; codon GGT) | 0.969 | – |
| SL9 peptide (HIV-1 Gag, […]) presented by HLA-A*02:01 3D (SLDNTVATL; codon GAT) | 1.15 | – |
| SL9 peptide (HIV-1 Gag, […]) presented by HLA-A*02:01 3T (SLTNTVATL; codon ACG) | – | 1.07 |
| SL9 peptide (HIV-1 Gag, […]) presented by HLA-A*02:01 3E (SLENTVATL; codon GAG) | 0.967 | – |
| SL9 peptide (HIV-1 Gag, […]) presented by HLA-A*02:01 3A (SLANTVATL; codon GCG) | 1.01 | – |
| SL9 peptide (HIV-1 Gag, […]) presented by HLA-A*02:01 3A (SLANTVATL; codon GCT) | 1.12 | – |
| SL9 peptide (HIV-1 Gag, […]) presented by HLA-A*02:01 3H (SLHNTVATL; codon CAT) | 1.25 | – |
| SL9 peptide (HIV-1 Gag, […]) presented by HLA-A*02:01 3L (SLLNTVATL; codon CTT) | 2.02 | – |
| SL9 peptide (HIV-1 Gag, […]) presented by HLA-A*02:01 3L (SLLNTVATL; codon CTG) | 1.89 | – |
| SL9 peptide (HIV-1 Gag, […]) presented by HLA-A*02:01 3P (SLPNTVATL; codon CCT) | 0.983 | – |
| SL9 peptide (HIV-1 Gag, […]) presented by HLA-A*02:01 3F (SLFNTVATL; codon TTT) | 2.02 | – |
| SL9 peptide (HIV-1 Gag, […]) presented by HLA-A*02:01 3G (SLGNTVATL; codon GGG) | 0.959 | – |
| SL9 peptide (HIV-1 Gag, […]) presented by HLA-A*02:01 3R (SLRNTVATL; codon CGT) | 1.04 | – |
| SL9 peptide (HIV-1 Gag, […]) presented by HLA-A*02:01 3N (SLNNTVATL; codon AAT) | 0.989 | – |
| SL9 peptide (HIV-1 Gag, […]) presented by HLA-A*02:01 3R (SLRNTVATL; codon CGG) | 1.09 | – |
| SL9 peptide (HIV-1 Gag, […]) presented by HLA-A*02:01 3S (SLSNTVATL; codon TCT) | 1.08 | – |
| SL9 peptide (HIV-1 Gag, […]) presented by HLA-A*02:01 3S (SLSNTVATL; codon TCG) | 1.06 | – |
| SL9 peptide (HIV-1 Gag, […]) presented by HLA-A*02:01 3K (SLKNTVATL; codon AAG) | 1.21 | – |
| SL9 peptide (HIV-1 Gag, […]) presented by HLA-A*02:01 3V (SLVNTVATL; codon GTT) | 1.16 | – |
